Article PMC2756985 (Biochemistry, 2009)
Where two headings read alike, the source gives them in different places.

Key:
[1] = cited from earlier work
[2] = cited from earlier work; remark: listed apart in the source
[3] = cited from earlier work; remark: listed apart in the source
DevS kinase = conditions: cited from earlier work
[4] = Oxygen dissociation rates of DevS proteins, stopped flow; assay type: binding, Mycobacterium tuberculosis; conditions: read-out: O2 Kd; from koff and kon
[5] = Oxygen association rates of DevS proteins, laser flash photolysis; assay type: binding, Mycobacterium tuberculosis; conditions: pH 7.5 phosphate buffer (20 mM), 200 mM NaCl, 1 mM EDTA
[6] = CO association and dissociation kinetics of DevS proteins, stopped flow; assay type: binding, Mycobacterium tuberculosis; conditions: 4 °C; for Kd: read-out: CO Kd, from koff and kon; for CO koff / CO kon: stopped flow; for CO koff: displacement with air saturated buffer or NO solutions; for CO kon: phosphate buffer (50 mM) pH 7.5, 200 mM NaCl, 1 mM EDTA
[7] = Autooxidation of oxy-ferrous DevS proteins to the ferric; assay type: physicochemical, Mycobacterium tuberculosis; conditions: for autooxidation rate k / autooxidation t1/2: 25 °C
[8] = ferrous unligated form (5c complex)
[9] = ligand binding: O2 (oxy ferrous 6c species)
[10] = phosphate buffer (50 mM), pH 7.5, 1 mM EDTA and 200 mM NaCl
[11] = CaCl2 0.1 mM, hepes buffer (20 mM), pH 7.5, Chelex 100
[12] = CuCl2 10 µM, hepes buffer (20 mM), pH 7.5, Chelex 100
[13] = FeCl3 0.1 mM (nominal), hepes buffer (20 mM), pH 7.5, Chelex 100
[14] = KCl 200 mM, hepes buffer (20 mM), pH 7.5, pretreated with Chelex 100
[15] = MgCl2 1 mM, hepes buffer (20 mM), pH 7.5, Chelex 100
[16] = NaCl 200 mM, hepes buffer (20 mM), pH 7.5, Chelex 100

B1: EcDos: Escherichia coli Dos, heme-regulated phosphodiesterase (protein, UniProt P76129 1-799, looked up)
Oxygen sensor protein DosP: MKLTDADNAADGIFFPALEQNMMGAVLINENDEVMFFNPAAEKLWGYKREEVIGNNIDMLIPRDLRPAHPEYIRHNREGGKARVEGMSRELQLEKKDGSKIWTRFALSKVSAEGKVYYLALVRDASVEMAQKEQTRQLIIAVDHLDRPVIVLDPERHIVQCNRAFTEMFGYCISEASGMQPDTLLNIPEFPADNRIRLQQLLWKTARDQDEFLLLTRTGEKIWIKASISPVYDVLAHLQNLVMTFSDITEERQIRQLEGNILAAMCSSPPFHEMGEIICRNIESVLNESHVSLFALRNGMPIHWASSSHGAEIQNAQSWSATIRQRDGAPAGILQIKTSSGAETSAFIERVADISQHMAALALEQEKSRQHIEQLIQFDPMTGLPNRNNLHNYLDDLVDKAVSPVVYLIGVDHIQDVIDSLGYAWADQALLEVVNRFREKLKPDQYLCRIEGTQFVLVSLENDVSNITQIADELRNVVSKPIMIDDKPFPLTLSIGISYDLGKNRDYLLSTAHNAMDYIRKNGGNGWQFFSPAMNEMVKERLVLGAALKEAISNNQLKLVYQPQIFAETGELYGIEALARWHDPLHGHVPPSRFIPLAEEIGEIENIGRWVIAEACRQLAEWRSQNIHIPALSVNLSALHFRSNQLPNQVSDAMHAWGIDGHQLTVEITESMMMEHDTEIFKRIQILRDMGVGLSVDDFGTGFSGLSRLVSLPVTEIKIDKSFVDRCLTEKRILALLEAITSIGQSLNLTVVAEGVETKEQFEMLRKIHCRVIQGYFFSRPLPAEEIPGWMSSVLPLKI
autooxidation rate k [1]: 0.7 h⁻¹ | autooxidation t1/2 [1]: 1 h

B2: BjFixL: FixL gas sensor kinase (literature comparator) (protein, UniProt P23222 1-505, looked up)
Sensor protein FixL: MAPTRVTHPPDDGRGEHFRVRIEGFGVGTWDLDLKTWALDWSDTARTLLGIGQDQPASYDLFLSRLEPDDRERVESAIKRVSERGGGFDVSFRVAGTSNAGQWIRARAGLIRDEAGTARHLSGIFLDIDEEKQVEGALRTRETHLRSILHTIPDAMIVIDGHGIIQLFSTAAERLFGWSELEAIGQNVNILMPEPDRSRHDSYISRYRTTSDPHIIGIGRIVTGKRRDGTTFPMHLSIGEMQSGGEPYFTGFVRDLTEHQQTQARLQELQSELVHVSRLSAMGEMASALAHELNQPLAAISNYMKGSRRLLAGSSDPNTPKVESALDRAAEQALRAGQIIRRLRDFVARGESEKRVESLSKLIEEAGALGLAGAREQNVQLRFSLDPGADLVLADRVQIQQVLVNLFRNALEAMAQSQRRELVVTNTPAADDMIEVEVSDTGSGFQDDVIPNLFQTFFTTKDTGMGVGLSISRSIIEAHGGRMWAESNASGGATFRFTLPAADEN
CO koff [2]: 0.045 s⁻¹ | CO kon [2]: 5000 M⁻¹ s⁻¹ | Kd ([2]; read-out: CO Kd): 9 µM | O2 koff [3]: 20 s⁻¹ | O2 kon [3]: 145000 M⁻¹ s⁻¹ | Kd ([3]; read-out: O2 Kd): 138 µM | autooxidation rate k ([1]; pH7, 37 °C): 2.8 h⁻¹ | autooxidation t1/2 ([1]; pH7, 37 °C): 0.25 h

B3: Bovine Mb: bovine myoglobin (protein, UniProt P02192 2-154, looked up)
Myoglobin: GLSDGEWQLVLNAWGKVEADVAGHGQEVLIRLFTGHPETLEKFDKFKHLKTEAEMKASEDLKKHGNTVLTALGGILKKKGHHEAEVKHLAESHANKHKIPVKYLEFISDAIIHVLHAKHPSDFGADAQAAMSKALELFRNDMAAQYKVLGFHG
autooxidation t1/2 ([1]; pH 9, 25 °C): 63 h

B4: full-length Y171F DevS (protein, UniProt P9WGK3 1-578, looked up, variant Y171F)
chain: MTTGGLVDENDGAAMRPLRHTLSQLRLHELLVEVQDRVEQIVEGRDRLDGLVEAMLVVTAGLDLEATLRAIVHSATSLVDARYGAMEVHDRQHRVLHFVYEGIDEETVRRIGHLPKGLGVIGLLIEDPKPLRLDDVSAHPASIGFPPYHPPMRTFLGVPVRVRDESFGTLFLTDKTNGQPFSDDDEVLVQALAAAAGIAVANARLYQQAKARQSWIEATRDIATELLSGTEPATVFRLVAAEALKLTAADAALVAVPVDEDMPAADVGELLVIETVGSAVASIVGRTIPVAGAVLREVFVNGIPRRVDRVDLEGLDELADAGPALLLPLRARGTVAGVVVVLSQGGPGAFTDEQLEMMAAFADQAALAWQLATSQRRMRELDVLTDRDRIARDLHDHVIQRLFAIGLALQGAVPHERNPEVQQRLSDVVDDLQDVIQEIRTTIYDLHGASQGITRLRQRIDAAVAQFADSGLRTSVQFVGPLSVVDSALADQAEAVVREAVSNAVRHAKASTLTVRVKVDDDLCIEVTDNGRGLPDEFTGSGLTNLRQRAEQAGGEFTLASVPGASGTVLRWSAPLSQ
modifications: full-length
kinase activity (DevS kinase; [8]): active | kinase activity (DevS kinase; [9]): inactive | Kd [4]: 0.12 µM | O2 kon [5]: 32.4 ^a µM^−1s^−1 | Kd [6]: 3.33 µM | CO koff [6]: 2.43 ± 0.15 ^b s^−1 | CO kon [6]: 0.73 ± 0.071 ^b µM^−1s^−1 | autooxidation rate k [7, 10]: 0.012 h⁻¹

B5: DevS: full length wild-type heme sensor kinase DevS of Mycobacterium tuberculosis (protein, UniProt P9WGK3 1-578, looked up)
chain: MTTGGLVDENDGAAMRPLRHTLSQLRLHELLVEVQDRVEQIVEGRDRLDGLVEAMLVVTAGLDLEATLRAIVHSATSLVDARYGAMEVHDRQHRVLHFVYEGIDEETVRRIGHLPKGLGVIGLLIEDPKPLRLDDVSAHPASIGFPPYHPPMRTFLGVPVRVRDESFGTLYLTDKTNGQPFSDDDEVLVQALAAAAGIAVANARLYQQAKARQSWIEATRDIATELLSGTEPATVFRLVAAEALKLTAADAALVAVPVDEDMPAADVGELLVIETVGSAVASIVGRTIPVAGAVLREVFVNGIPRRVDRVDLEGLDELADAGPALLLPLRARGTVAGVVVVLSQGGPGAFTDEQLEMMAAFADQAALAWQLATSQRRMRELDVLTDRDRIARDLHDHVIQRLFAIGLALQGAVPHERNPEVQQRLSDVVDDLQDVIQEIRTTIYDLHGASQGITRLRQRIDAAVAQFADSGLRTSVQFVGPLSVVDSALADQAEAVVREAVSNAVRHAKASTLTVRVKVDDDLCIEVTDNGRGLPDEFTGSGLTNLRQRAEQAGGEFTLASVPGASGTVLRWSAPLSQ
modifications: full-length
autooxidation half life ([1]; 37 °C, full length DevS from a slow expressing vector): 4 h | kinase activity (DevS kinase; [8]): active | kinase activity (DevS kinase; ferrous unligated form (5c complex), listed as wild-type DevS): intermediate kinase activity | kinase activity (DevS kinase; ligand binding: CO and NO): further activates the kinase | kinase activity (DevS kinase; [9]): inactive | kinase activity (DevS kinase; ligand binding: O2 (oxy ferrous 6c species), listed as wild-type DevS): completely inactivates it | Kd [4]: 0.58 µM | O2 kon [5]: 11.8 ^a µM^−1s^−1 | Kd [6]: 8.29 µM | CO koff [6]: 2.57 ± 0.40 ^b s^−1 | CO kon [6]: 0.31 ± 0.031 ^b µM^−1s^−1 | autooxidation half life ([7]; 0.1 mM Cu2+): less than 2 min | autooxidation rate k [7, 11]: 0.0049 h⁻¹ | autooxidation t1/2 [7, 11]: 170 h | decrease of autooxidation rate on tenfold decrease in Cu2+ concentration ([7]; Cu2+ from 100 to 10 µM): over 300 fold | autooxidation rate k [7, 12]: 0.062 h⁻¹ | autooxidation t1/2 [7, 12]: 11 h | autooxidation rate k ([7]; CuCl2 0.1 mM, hepes buffer (20 mM), pH 7.5, Chelex 100): 25 h⁻¹ | autooxidation rate k [7, 13]: 0.09 h⁻¹ | autooxidation t1/2 [7, 13]: 7.8 h | autooxidation rate k [7, 14]: 0.013 h⁻¹ | autooxidation t1/2 [7, 14]: 78 h | autooxidation rate k [7, 15]: 0.012 h⁻¹ | autooxidation t1/2 [7, 15]: 59 h | autooxidation rate k [7, 16]: 0.010 h⁻¹ | autooxidation t1/2 [7, 16]: 96 h | autooxidation rate k ([7]; hepes 20 mM, pH 7.5, pretreated with Chelex 100, no added cation): 0.0033 h⁻¹ | autooxidation half-lives ([7]; in the absence of Fe3+ and Cu2+): greater than one day | autooxidation rates ([7]; in the presence of K+, Na+, Mg2+, and Ca2+): 0.005 to 0.02 h⁻¹ | autooxidation rate k [7, 10]: 0.019 h⁻¹ | autooxidation t1/2 [7, 10]: > 30 h | autooxidation t1/2 ([7]; phosphate buffer (50 mM), pH 7.5, 1 mM EDTA and 200 mM NaCl, listed as Full length wild-type DevS): 73.6 h
